B1: Guanyl-specific ribonuclease Sa, P05798 (parent)
chain: DVSGTVCLSALPPEATDTLNLIASDGPFPYSQDGVVFQNRESVLPTQSYGYYHEYTVITPGARTRGTRRIITGEATQEDYYTGDHYATFSLIDQTC

Variants of: B1
Settings: Kitasatospora aureofaciens, pH 7, Thermal, Mops 30 mM, structure 1RGG, whole UniProt chain shown; for ddG of mutation (higher = less stable) / heat capacity change of unfolding: 52.6 °C

Variant	ddG of mutation (higher = less stable) (CD)	heat capacity change of unfolding (CD)	ddG of mutation (higher = less stable) (DSC)	heat capacity change of unfolding (DSC)	Tm (CD)	change of melting temperature, mutant - wild type (higher = more stable) (CD)	unfolding enthalpy (van 't Hoff) (CD)
D33A	6.2 kcal/mol	1.52 kcal/mol/K	6 kcal/mol	1.52 kcal/mol/K	31.8 °C	-16 °C	57 kcal/mol
D79E	0.3 kcal/mol	1.52 kcal/mol/K	0.3 kcal/mol	1.52 kcal/mol/K	47 °C	-0.8 °C	90 kcal/mol
D79H	-1.8 kcal/mol	1.52 kcal/mol/K	-1.8 kcal/mol	1.52 kcal/mol/K	–	–	–
D79I	-2.9 kcal/mol	1.52 kcal/mol/K	-2.8 kcal/mol	1.52 kcal/mol/K	57.4 °C	9.6 °C	89 kcal/mol
D79K	-2.3 kcal/mol	1.52 kcal/mol/K	-2.3 kcal/mol	1.52 kcal/mol/K	55.4 °C	7.6 °C	88 kcal/mol
D79R	-2.7 kcal/mol	1.52 kcal/mol/K	-2.7 kcal/mol	1.52 kcal/mol/K	56.8 °C	9 °C	92 kcal/mol
D79W	-2.3 kcal/mol	1.52 kcal/mol/K	-2.3 kcal/mol	1.52 kcal/mol/K	55.4 °C	7.6 °C	88 kcal/mol
D79Y	-2.9 kcal/mol	1.52 kcal/mol/K	–	–	57.4 °C	9.6 °C	84 kcal/mol
D79L	–	–	-2.7 kcal/mol	1.52 kcal/mol/K	56.6 °C	8.7 °C	75 kcal/mol

— FireProtDB (doi:10.1016/j.jmb.2005.09.091)
